According to patent publication US20220144940A1:

Assays:
human ILT7 (human) [1] = target: human ILT7 (human) (UniProt P59901); assay: FACS dot plot of human PBMCs, CD304-PE against AF647-labeled antibody (lower left panel); upper left quadrant (CD304+ AF647-) 0.532
human ILT7 (human) [2] = target: human ILT7 (human) (UniProt P59901); assay: flow cytometry dot plot of human PBMCs, BDCA-4 against APC-labeled antibody (upper row); upper left quadrant (BDCA-4+ APC-) 0.36
human ILT7 (human) [3] = target: human ILT7 (human) (UniProt P59901); assay: flow cytometry of human PBMCs with APC-labeled antibody at 2.5 µg/ml, histogram gated on BDCA-4+ pDCs (lower row)

Chain of human ILT7 (human) (P59901 24-499): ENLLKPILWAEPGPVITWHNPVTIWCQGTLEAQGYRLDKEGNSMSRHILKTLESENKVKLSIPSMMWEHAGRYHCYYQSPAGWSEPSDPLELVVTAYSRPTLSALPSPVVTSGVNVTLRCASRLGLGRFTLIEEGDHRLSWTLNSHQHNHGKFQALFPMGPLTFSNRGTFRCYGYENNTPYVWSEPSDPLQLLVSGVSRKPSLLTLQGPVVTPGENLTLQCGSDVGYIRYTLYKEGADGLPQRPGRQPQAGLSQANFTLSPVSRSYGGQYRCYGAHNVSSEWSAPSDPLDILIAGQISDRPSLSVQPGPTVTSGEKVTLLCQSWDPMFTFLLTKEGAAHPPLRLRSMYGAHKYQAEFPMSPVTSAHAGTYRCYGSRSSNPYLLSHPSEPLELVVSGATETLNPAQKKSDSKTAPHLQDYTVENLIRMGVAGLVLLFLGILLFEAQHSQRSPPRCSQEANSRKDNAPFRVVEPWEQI

Row | percent of PBMCs in the CD304+ AF647+ quadrant (upper right) (human ILT7 (human) [1]) [%] | percent of PBMCs in the BDCA-4+ APC+ quadrant (upper right) (human ILT7 (human) [2]) [%] | percent of pDCs (BDCA-4+ cells) in the APC-positive gate (human ILT7 (human) [3]) [%] | Substance
1 | 0.0153 | – | – | afucosylated isotype control R347 (antibody)
2 | – | 0.000963 | 0.59 | isotype control R347 (antibody)
